Measurements taken from publication PMC3419727, “Identifying the Hotspots on the Top Faces of WD40-Repeat Proteins from Their Primary Sequences by β-Bulges and DHSW Tetrads” (PLoS ONE, 2012).

Columns and labels:
[1] = target: T1, S. japonicus Tup11 WD40 domain (301–630) Tyr426Ala (S. japonicus, UniProt B6JV84 301-630, Tyr426 substituted by Ala); assay: ITC; Fep1 (~1.4 mM) injected, 2 µl each time, into Tup11 WT or mutant (~0.2 mM); 25°C; 1×PBS pH 7.4, 150 mM NaCl; iTC200 (MicroCal); Fep1 into buffer subtracted as background; details: both partners purified
T1 construct: Tup11, S. japonicus, WD40 domain, amino acids 301-630
T1 sequence (looked up): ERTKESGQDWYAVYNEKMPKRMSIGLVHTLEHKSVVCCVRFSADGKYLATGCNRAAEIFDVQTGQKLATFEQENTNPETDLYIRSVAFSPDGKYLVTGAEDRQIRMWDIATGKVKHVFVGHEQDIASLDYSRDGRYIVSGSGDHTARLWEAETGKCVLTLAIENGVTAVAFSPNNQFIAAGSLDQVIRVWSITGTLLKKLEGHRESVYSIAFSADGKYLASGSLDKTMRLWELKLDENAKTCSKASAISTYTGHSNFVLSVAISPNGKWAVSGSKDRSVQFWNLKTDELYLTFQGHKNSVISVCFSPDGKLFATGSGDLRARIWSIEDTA

[2] = target: T2, S. japonicus Tup11 WD40 domain (301–630) Ile601Ala (S. japonicus, UniProt B6JV84 301-630, Ile601Ala); assay: as above; details: both partners purified
T2 construct: Tup11, S. japonicus, WD40 domain, amino acids 301-630
T2 sequence (looked up): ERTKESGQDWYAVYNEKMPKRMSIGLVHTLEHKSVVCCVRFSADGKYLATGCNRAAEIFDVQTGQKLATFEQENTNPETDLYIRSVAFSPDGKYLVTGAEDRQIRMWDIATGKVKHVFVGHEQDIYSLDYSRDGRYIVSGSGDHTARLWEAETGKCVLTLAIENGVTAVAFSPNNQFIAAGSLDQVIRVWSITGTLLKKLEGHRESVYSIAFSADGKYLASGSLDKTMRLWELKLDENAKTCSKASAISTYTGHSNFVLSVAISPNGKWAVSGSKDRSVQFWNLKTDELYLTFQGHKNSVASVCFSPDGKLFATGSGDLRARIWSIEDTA

B1: C-terminal region of S. pombe Fep1 (amino acids 319–564) (domain or fragment, UniProt Q10134 319-564, looked up)
chain: AAGEPDNNGKVYYSYGPTQEQSILPLPENKHEGLPPYQNEYVPNGIRANQVVYPGQLVAVGNDSSKQLSESTTSNTDNNGVATANQSNPLGMKFHLPPILPVGESVCLPPRTSAKPRIAEGIASLLNPEEPPSNSDKQPSMSNGPKSEVSPSQSQQAPLIQSSTSPVSLQFPPEVQGSNVDKRNYALNVLSQLRSQHDLMIQELHNLNQHIQQIDEWLRSSDNENMASEHIKSSTPAVVASGALQT
notes: Fep1, GATA-factor, S. pombe, C-terminal region, amino acids 319-564
binding result [1]: binds | binding result [2]: binds
